Measurements: patent publication US20230027739A1, “ANTIGEN-BINDING AND ANTIGEN D[…]” (Entrada Therapeutics, Inc., priority 2021, published 2023)

Molecular target: KRas in human cancer cell lines with KRas mutations (HCT-116, SW480, LS180, LS174T) (human), P01116
Test: cell-based or functional assay

B1: K19-Cys-EEV12 (designed binder)
chain: MHHHHHHENLYFQGDLGKKLLEAARAGQDDEVRILMANGADVNASDRWGWTPLHLAAWWGHLEIVEVLLKRGADVSAADLHGQSPLHLAAMVGHLEIVEVLLKYGADVNAKDTMGATPLHLAARSGHLEIVEELLKNGADMNAQDKFGKTTFDISTDNGNEDLAEILQKLC
modifications: not checked
Q: For B1, which IC50 of cell viability (CellTiter-Glo, 72 h) on KRas mutant cell lines is on record?
A: The IC50 of cell viability (CellTiter-Glo, 72 h) on KRas mutant cell lines was 2 to 8 µM.
